Measurements reported in US7172876B2, “Method of screening therapeutic agents for nerve degeneration associated diseases” (Takeda Pharmaceutical Company Limited, priority 2002, dated 2007).
Substitutions are numbered along the chain they refer to. Ends that are not written are not given here. * marks the point of attachment. For = O=C*

Assays:
[1] = tested on: rFPRL1; assay: Inhibition of forskolin-increased intracellular cAMP in rat FPRL1-expressing CHO cells; type: cell-based; conditions: 1 μM forskolin
Description: (§1) CHO cells expressing each receptor were washed with an assay medium (HBSS (GibcoBRL) supplemented with 0.1% bovine serum albumin and 0.2 mM IBMX) and then cultured at 37° C. in 5% CO2 for 30 minutes. Humanin (Peptide Research Laboratory, Co.) or related substances diluted at each concentration with the assay buffer were added thereto, and then forskolin was added at a final concentration of 1 μM. The cells were cultured at 37° C. in 5% CO2 for 30 minutes. The culture supernatant was discarded, and the amount of cAMP in the cells was measured with a plate reader (ARVO sx multi-label counter, manufactured by Wallac) according to a protocol of a cAMP screen kit (Applied Biosystems). Assuming that the amount of cAMP produced in the cells to which 1 μM forskolin had been added was 100% and the amount of cAMP produced in the cells to which forskolin had not been added was 0%, the amount of cAMP upon addition of each agonist is shown in %. The concentration at which the amount of cAMP produced was inhibited by 50% (EC50) was calculated from logit-log plotting.

[2] = molecular target: T1, hFPRL2 (Homo sapiens, UniProt P25089); assay: Inhibition of forskolin-increased intracellular cAMP in human FPRL2-expressing CHO cells; type: cell-based; conditions: 1 μM forskolin
T1 construct: expressed in transfected cells; host or cells: CHO cells (clone No. 17)
T1 sequence (P25089 1-353 G94A/S211T/D338H): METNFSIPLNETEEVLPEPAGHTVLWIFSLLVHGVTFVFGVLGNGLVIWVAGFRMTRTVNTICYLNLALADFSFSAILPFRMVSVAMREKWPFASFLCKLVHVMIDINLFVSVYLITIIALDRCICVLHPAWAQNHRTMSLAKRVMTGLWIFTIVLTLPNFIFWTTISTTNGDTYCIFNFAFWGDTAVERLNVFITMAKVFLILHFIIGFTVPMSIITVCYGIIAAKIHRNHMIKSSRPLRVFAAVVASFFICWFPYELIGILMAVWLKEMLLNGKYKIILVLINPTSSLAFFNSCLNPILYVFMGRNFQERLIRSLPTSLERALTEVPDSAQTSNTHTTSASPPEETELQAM
Description: as §1

[3] = molecular target: T2, FPRL1 (Homo sapiens, UniProt P25090); assay: Inhibition of forskolin-increased intracellular cAMP in human FPRL1-expressing CHO cells; type: cell-based; parameters: expressed in transfected cells; host or cells: CHO cells (clone No. 8; the title also lists a 'Human FPRL1' clone No. 14); conditions: 1 μM forskolin
T2 sequence (P25090 1-351): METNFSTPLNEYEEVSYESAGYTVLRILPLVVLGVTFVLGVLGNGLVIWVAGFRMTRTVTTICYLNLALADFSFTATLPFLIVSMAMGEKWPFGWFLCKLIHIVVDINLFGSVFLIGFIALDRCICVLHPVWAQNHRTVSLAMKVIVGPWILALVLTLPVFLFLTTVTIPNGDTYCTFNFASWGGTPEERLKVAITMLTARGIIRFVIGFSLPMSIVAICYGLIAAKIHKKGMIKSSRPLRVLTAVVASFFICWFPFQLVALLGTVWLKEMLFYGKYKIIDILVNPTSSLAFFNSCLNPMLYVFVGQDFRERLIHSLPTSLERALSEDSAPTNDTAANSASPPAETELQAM

[4] = molecular target: T3, mFPRL2 (Mus musculus, UniProt O88536); assay: Inhibition of forskolin-increased intracellular cAMP in mouse FPRL2-expressing CHO cells; type: cell-based; conditions: 1 μM forskolin
T3 construct: expressed in transfected cells; host or cells: CHO cells (clone No. 15); expression vector pAKKO-111H
T3 sequence (O88536 1-351): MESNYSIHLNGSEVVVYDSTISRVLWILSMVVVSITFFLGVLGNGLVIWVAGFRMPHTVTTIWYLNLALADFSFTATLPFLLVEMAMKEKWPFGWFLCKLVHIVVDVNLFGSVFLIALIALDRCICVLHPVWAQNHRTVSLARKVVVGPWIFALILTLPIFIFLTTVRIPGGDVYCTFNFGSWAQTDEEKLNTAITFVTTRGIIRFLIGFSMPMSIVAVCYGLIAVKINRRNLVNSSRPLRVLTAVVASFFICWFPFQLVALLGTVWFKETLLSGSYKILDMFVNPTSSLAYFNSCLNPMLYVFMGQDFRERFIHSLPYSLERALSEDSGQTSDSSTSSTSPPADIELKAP
Description: as §1

[5] = molecular target: T4, FPRL2 (Homo sapiens, UniProt P25089); conditions: reported in the literature; cited from earlier work
T4 sequence (P25089 1-353): T1 sequence (P25089 1-353 G94A/S211T/D338H) with A94G, T211S, H338D

[6] = molecular target: T2, FPRL1; conditions: reported in the literature; cited from earlier work
[7] = molecular target: T4, FPRL2; conditions: reported in the literature; cited from earlier work; remark: listed apart in the source
[8] = tested on: FPRL1-GFP; assay: Inhibition of forskolin-increased intracellular cAMP in CHO cells expressing FPRL1-GFP; type: cell-based; conditions: 1 μM forskolin; CHO cells expressing FPRL1-GFP compared with mock CHO cells (vector only)
Description: CHO cells expressing FPRL1-GFP were washed with an assay medium (HBSS (GibcoBRL) supplemented with 0.1% bovine serum albumin and 0.2 mM IBMX) and then cultured at 37° C. in 5% CO2 for 30 minutes. Humanin (Peptide Research Laboratory, Co.) or related substances diluted at each concentration with the assay buffer were added thereto, and then forskolin was added at a final concentration of 1 μM. The cells were cultured at 37° C. in 5% CO2 for 30 minutes. The culture supernatant was discarded, and the amount of cAMP in the cells was measured with a plate reader (ARVO sx multi-label counter, manufactured by Wallac) according to a protocol of a cAMP screen kit (Applied Biosystems).

[9] = tested on: nerve cells; conditions: reported in the literature; cited from earlier work

Chain of rFPRL1 (as listed by the source): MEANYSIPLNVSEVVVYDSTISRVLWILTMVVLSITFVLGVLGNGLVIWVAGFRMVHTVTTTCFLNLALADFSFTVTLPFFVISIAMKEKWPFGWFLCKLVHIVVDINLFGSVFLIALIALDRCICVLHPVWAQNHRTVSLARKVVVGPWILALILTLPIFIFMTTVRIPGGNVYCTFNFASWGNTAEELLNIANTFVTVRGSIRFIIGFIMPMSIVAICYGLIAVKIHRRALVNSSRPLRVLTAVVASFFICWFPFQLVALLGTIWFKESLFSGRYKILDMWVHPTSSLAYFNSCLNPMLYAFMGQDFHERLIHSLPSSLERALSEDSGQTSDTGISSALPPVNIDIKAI

| Molecule | reaction with rFPRL1 (inhibition of forskolin-increased intracellular cAMP) [1] | reaction with hFPRL1 (inhibition of forskolin-increased intracellular cAMP) [3] | reaction with mFPRL2 (inhibition of forskolin-increased intracellular cAMP) [4] | also measured |
| --- | --- | --- | --- | --- |
| [Gly^14]-humanin: [Gly^14]-human humanin (1-24) consisting of the amino acid sequence represented by SEQ ID NO: 4 (MAPRGFSCLLLLTGEIDLPVKRRA; Human) | react | react | react | reaction with hFPRL2 (inhibition of forskolin-increased intracellular cAMP) [2]: strongly |
| formyl-Met-Leu-Phe [fMLF] | – | – | – | reaction of human FPRL2 with fMLF [5]: does not react |
| mt-formyl-Humanin: human humanin (1-21), SEQ ID NO: 6, wherein Met at the N-terminus is formylated (For-MAPRGFSCLLLLTSEIDLPVK) | react | strongly | react | – |
| formyl-Humanin: human humanin (1-24), SEQ ID NO: 3, wherein Met of the N-terminus is formylated | react | – | react | – |
| CCCCC[C@H](O)/C=C/C=C\C=C\C=C\[C@@H](O)[C@@H](O)CCCC(=O)O [lipoxin A4] | – | – | – | agonist of FPRL1 [6]: Agonists |
| Trp-Lys-Tyr-Met-Val-dMet-NH2 [W-Peptide] | – | – | – | agonist of FPRL2 [7]: agonist |
| Aβ42: β-amyloid (1-42), intrinsic substance reported as agonist of FPRL1 | – | – | – | agonist of FPRL1 [6]: agonist |
| humanin: human humanin (1-24) consisting of the amino acid sequence represented by SEQ ID NO: 3 | react | react | react | decrease of the amount of intracellular cAMP increased by addition of forskolin [8]: dose-dependent and specific decrease; reaction with hFPRL2 (inhibition of forskolin-increased intracellular cAMP) [2]: strongly; death of nerve cells into which the familial Alzheimer's disease gene had been introduced [9]: inhibited; nerve apotosis induced by adding β-amyloid [9]: inhibited |
| mt-formyl-rattin: rat humanin (1-21), SEQ ID NO: 9, wherein Met at the N-terminus is formylated (For-MAKRGFNCLLLSISEIDLPVK) | react | strongly | react | – |
